pKd: −log10 of the molar value.
What was measured:
[1] = target: ASP1-GST fusion protein (aspartic protease ASP-1 of C. elegans) (C. elegans) (UniProt G5EEI4); assay: ELISA; plates coated with 0.5 ug ASP-1/well in 20 mM HEPES pH 8.0, blocked with PBST 3% BSA, increasing concentrations of biotinylated toxin; specific binding = total minus binding with 1000-fold molar excess of unlabeled Cry6Aa
[2] = target: ASP1-GST fusion protein (aspartic protease ASP-1 of C. elegans) (C. elegans) (UniProt G5EEI4); assay: ITC; 25 C, 20 mM HEPES pH 8.0; 21.16 uM Cry6Aa titrated into 2.20 uM ASP-1 in the cell, 20 injections of 10 uL

biotin-labeled crystal protein Cry6Aa (from UniProt Q45757 1-475) (natural protein)
pKd [1]: 6.84

crystal protein Cry6Aa (unlabeled) (from UniProt Q45757 1-475) (natural protein)
pKd [2]: 6.90

Reference: publication PMC4721865
